Measured values as given in article doi:10.1101/2023.02.11.528150 (bioRxiv, 2023).
Values joined by “and” are separate entries in the source; they are usually repeats but may differ in a detail not shown here. Equal entries are not always repeated. Where two headings read alike, the source gives them in different places.

B1: recombinant form of human platelet factor 4 (PF4), tetramer (natural protein)
chain: EAEEDGDLQCLCVKTTSQVRPRHITSLEVIKAGPHCPTAQLIATLKNGRKICLDLQAPLYKKIIKKLLES
B2: KKO monoclonal anti-PF4/heparin antibody (antibody, V domains shown)
VH: VQLQQSGAELVKPGASVKLSCKASGYTFTNYFIYWVKQRPGQGLEWIGEINPRNGDTDFNEKFESRATLTVDKSSSTAYMQLSSLTSEDSAIYYCTRSPYGNNYGFTYWGQGTLVTVSA
VL: DIQMIQSQKFMSTSVGDRVTVTCKASQNVGTNVAWYQQKPGQSPNALIYSASYRYSGVPDRFTGSGSGTDFTLTITNVQSEDLADYFCQQYNSYPLTFGTGTKLDLK

Tests used:
Test in all cases: native MS
native MS = target: the molecule itself
[1] = target: T1, recombinant form of human platelet factor 4 (PF4), tetramer (human, UniProt P02776)
[2] = target: T1, recombinant form of human platelet …; remark: listed apart in the source

Row | Binder | stoichiometry N (native MS) [chains per oligomer] | stoichiometry N [1] | stoichiometry N [2]
1 | B1 | 4 | – | –
2 | B2 | – | 1 PF4 tetramer (with dp20) per KKO and 2 PF4 tetramers (with dp20) per KKO | 1 KKO per complex of two PF4 tetramers on one heparin chain and 2 KKO per complex of three PF4 tetramers on one heparin chain
